B1: ZBTB22 (parent)
chain: HTGLKPYECGVCAKKFMWRDSFMR
B2: RSPH3 (parent)
chain: VDVQTELYLEEIADRIIEVDMECQ
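Further: lentivirally expressed fusions sorted by FACS into six bins by GFP to DsRed ratio, PSI derived from sequencing read proportions per bin multiplied by bin number.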

Variants of: B1
Experiment: protein stability index of a GFP-peptide fusion (GPS, HEK-293T) (PSI 1-6); higher = more stable
Details: c terminus: a fixed tail appended
With HTGLKPYECGVCAKKFMWDDSFMR the protein stability index was 1.88.
HTGLKPYECGVCAKKFMWADSFMR gave a protein stability index of 2.81.
In the case of HTGLKPYECGVCAKKFMWTDSFMR, the protein stability index is reported as 2.13.
With HTGLKPYECGVCAKKFMWPDSFMR the protein stability index was 4.1.
Variant HTGLKPYECGVCAKKFMWWDSFMR has a protein stability index of 1.77.
With HTGLKPYECGVCAKKFMWCDSFMR the protein stability index was 1.59.
HTGLKPYECGVCAKKFMWMDSFMR showed a protein stability index of 2.01.
For HTGLKPYECGLCAKKFMWRDSFMR, the protein stability index was 1.85.
With HTGLKPYECGFCAKKFMWRDSFMR the protein stability index was 2.4.
Variant HTGLKPYECGYCAKKFMWRDSFMR has a protein stability index of 2.59.
Variant HTGLKPYECGGCAKKFMWRDSFMR has a protein stability index of 1.25.
In the case of HTGLKPYECGKCAKKFMWRDSFMR, the protein stability index is reported as 2.98.
With HTGLKPYECGNCAKKFMWRDSFMR the protein stability index was 1.37.
HTGLKPYECGVCAKNFMWRDSFMR gave a protein stability index of 2.26.
For HTGLKPYECGVCAKIFMWRDSFMR, the protein stability index was 1.77.
With HTGLKPYECHVCAKKFMWRDSFMR the protein stability index was 1.96.
For HTGLKPYECPVCAKKFMWRDSFMR, the protein stability index was 1.92.
HTGLKPYECVVCAKKFMWRDSFMR gave a protein stability index of 4.2.
Work on HTGLKPYECKVCAKKFMWRDSFMR yielded a protein stability index of 2.19.
In the case of HTGLKPYECTVCAKKFMWRDSFMR, the protein stability index is reported as 1.84.
Variant HTGLKPYECMVCAKKFMWRDSFMR has a protein stability index of 1.64.
Variant HTGLKPYECSVCAKKFMWRDSFMR has a protein stability index of 1.47.
Work on HTSLKPYECGVCAKKFMWRDSFMR yielded a protein stability index of 2.62.
HTILKPYECGVCAKKFMWRDSFMR gave a protein stability index of 2.91.
Work on HTDLKPYECGVCAKKFMWRDSFMR yielded a protein stability index of 1.36.
Variant HTGLKPYEPGVCAKKFMWRDSFMR has a protein stability index of 2.65.
In the case of HTGLKPYEGGVCAKKFMWRDSFMR, the protein stability index is reported as 2.23.
HTGLKPMECGVCAKKFMWRDSFMR gave a protein stability index of 2.08.
Variant HTGLKPCECGVCAKKFMWRDSFMR has a protein stability index of 2.68.
Work on HTGLKPAECGVCAKKFMWRDSFMR yielded a protein stability index of 2.64.
For HTGLKPYECGVCAKKFMLRDSFMR, the protein stability index was 3.88.
HTGLKPYECGVCAKKFMHRDSFMR gave a protein stability index of 2.81.
In the case of HTGLKPYECGVCAKKFMARDSFMR, the protein stability index is reported as 1.06.
In the case of HTGLDPYECGVCAKKFMWRDSFMR, the protein stability index is reported as 3.82.
HTGLIPYECGVCAKKFMWRDSFMR gave a protein stability index of 2.05.
In the case of HTGLKPYECGVNAKKFMWRDSFMR, the protein stability index is reported as 2.56.
Work on HTGLKPYECGVIAKKFMWRDSFMR yielded a protein stability index of 3.24.
HTGLKPYECGVCAKKFMWRDSFML gave a protein stability index of 3.44.
HTGLKPYECGVCAKKFMWRDSFMD showed a protein stability index of 1.37.
In the case of HTGLKPYECGVCAKKFMWRDSFMC, the protein stability index is reported as 2.94.
Work on HTGLKPYECGVCAKKFMWRDSFMK yielded a protein stability index of 1.71.
Variant HTGLKPYECGVCAKKFMWRDSTMR has a protein stability index of 1.74.
HTGLKPYECGVCAKKFMWRDSNMR gave a protein stability index of 1.49.
In the case of HTGLKPYECGVCAKKFMWRDSLMR, the protein stability index is reported as 2.46.
With HTGLKPYECGVCAKKFMWRDYFMR the protein stability index was 2.58.
Work on HTGDKPYECGVCAKKFMWRDSFMR yielded a protein stability index of 2.32.
HTGNKPYECGVCAKKFMWRDSFMR gave a protein stability index of 1.37.
Variant HTGSKPYECGVCAKKFMWRDSFMR has a protein stability index of 4.46.
Variant HTGLKPYECGVCAKKKMWRDSFMR has a protein stability index of 1.32.
HTGLKPYECGVCAKKEMWRDSFMR showed a protein stability index of 1.31.
With HTGLKPYECGVCAKKCMWRDSFMR the protein stability index was 2.57.
Variant HTGLKPYFCGVCAKKFMWRDSFMR has a protein stability index of 2.2.
Variant HTGLKPYDCGVCAKKFMWRDSFMR has a protein stability index of 2.94.
HTGLKPYYCGVCAKKFMWRDSFMR showed a protein stability index of 1.3.
HTGLKPYECGVCALKFMWRDSFMR gave a protein stability index of 1.82.
Work on HTGLKPYECGVCAWKFMWRDSFMR yielded a protein stability index of 2.78.
Variant HTGLKPYECGVCATKFMWRDSFMR has a protein stability index of 2.19.
HTGLKPYECGVCAQKFMWRDSFMR gave a protein stability index of 2.53.
For HTGLKPYECGVCAKKFMWRQSFMR, the protein stability index was 1.74.
For HTGLKPYECGVCAKKFMWRHSFMR, the protein stability index was 2.65.
For HTGLKPYECGVCAKKFMWRGSFMR, the protein stability index was 3.52.
HTGLKMYECGVCAKKFMWRDSFMR showed a protein stability index of 2.6.
In the case of HTGLKKYECGVCAKKFMWRDSFMR, the protein stability index is reported as 3.36.
Work on HTGLKRYECGVCAKKFMWRDSFMR yielded a protein stability index of 2.1.
Work on HTGLKAYECGVCAKKFMWRDSFMR yielded a protein stability index of 3.44.
In the case of HTGLKEYECGVCAKKFMWRDSFMR, the protein stability index is reported as 2.97.
For HTGLKPYECGVCAKKFMWRDSFGR, the protein stability index was 1.69.
In the case of HTGLKPYECGVCAKKFMWRDSFHR, the protein stability index is reported as 2.79.
Variant HTGLKPYECGVCAKKFMWRDSFVR has a protein stability index of 1.96.
Variant HTGLKPYECGVCAKKFMWRDSFPR has a protein stability index of 2.28.
Variant HTGLKPYECGVCAKKFSWRDSFMR has a protein stability index of 1.9.
Variant HTGLKPYECGVCAKKFDWRDSFMR has a protein stability index of 1.84.
Work on HTGLKPYECGVCAKKFRWRDSFMR yielded a protein stability index of 1.39.
HTGLKPYECGVCAKKFQWRDSFMR gave a protein stability index of 1.64.
With HTGLKPYECGVCAKKFTWRDSFMR the protein stability index was 3.13.
Variant CTGLKPYECGVCAKKFMWRDSFMR has a protein stability index of 1.3.
ATGLKPYECGVCAKKFMWRDSFMR gave a protein stability index of 3.04.
Work on DTGLKPYECGVCAKKFMWRDSFMR yielded a protein stability index of 1.45.

Variants of: B2
Experiment: as above
Details: c terminus: a fixed tail appended
For VDVQTALYLEEIADRIIEVDMECQ, the protein stability index was 1.73.
Work on VDVQTMLYLEEIADRIIEVDMECQ yielded a protein stability index of 3.63.
VDVQTHLYLEEIADRIIEVDMECQ gave a protein stability index of 2.19.
For VDVQTLLYLEEIADRIIEVDMECQ, the protein stability index was 1.65.
Variant VDVQTFLYLEEIADRIIEVDMECQ has a protein stability index of 1.64.
In the case of VDVQTQLYLEEIADRIIEVDMECQ, the protein stability index is reported as 2.14.
For VDVQTTLYLEEIADRIIEVDMECQ, the protein stability index was 1.83.
VDVQTGLYLEEIADRIIEVDMECQ gave a protein stability index of 3.25.
Work on VDVQTPLYLEEIADRIIEVDMECQ yielded a protein stability index of 3.41.
For VDVQTRLYLEEIADRIIEVDMECQ, the protein stability index was 2.52.
VDVQTNLYLEEIADRIIEVDMECQ gave a protein stability index of 2.18.
For VDVQTSLYLEEIADRIIEVDMECQ, the protein stability index was 2.39.
With VDVQTKLYLEEIADRIIEVDMECQ the protein stability index was 2.44.
Variant VDVQTCLYLEEIADRIIEVDMECQ has a protein stability index of 1.57.
Work on VDVQTDLYLEEIADRIIEVDMECQ yielded a protein stability index of 2.03.
With VDVQTWLYLEEIADRIIEVDMECQ the protein stability index was 2.21.

— the supplement of paper PMC10567573
